Laboratory results published in patent publication US20080181903A1, “CONJUGATE OF NATRIURETIC PEPTIDE AND ANTIBODY CONSTANT REGION” (PDL BioPharma, Inc., priority 2006, published 2008).

T1: purified NPR-A-Fc fusion protein (extracellular domain of the receptor NPR-A) (Homo sapiens, UniProt P16066)
T1 construct: Expression construct encoding for the extracellular domain of the receptor NPR-A fused to the DNA encoding for the Fc domain of human immunoglobulin; made in house
T1 sequence (P16066 33-473 limits assumed): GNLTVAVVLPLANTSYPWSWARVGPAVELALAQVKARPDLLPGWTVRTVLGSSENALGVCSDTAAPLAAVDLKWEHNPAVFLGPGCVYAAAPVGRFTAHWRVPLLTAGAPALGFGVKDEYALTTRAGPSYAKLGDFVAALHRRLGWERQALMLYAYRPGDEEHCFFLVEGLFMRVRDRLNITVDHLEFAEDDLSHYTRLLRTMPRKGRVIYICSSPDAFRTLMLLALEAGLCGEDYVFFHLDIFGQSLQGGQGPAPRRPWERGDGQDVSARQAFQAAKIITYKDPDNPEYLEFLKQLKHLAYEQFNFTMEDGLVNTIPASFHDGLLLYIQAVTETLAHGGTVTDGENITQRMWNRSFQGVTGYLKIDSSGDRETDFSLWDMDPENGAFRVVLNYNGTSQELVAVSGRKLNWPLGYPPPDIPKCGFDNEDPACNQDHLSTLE

T2: NPR-A receptor (Homo sapiens, UniProt P16066)
T2 construct: expressed in transfected cells; host or cells: mammalian tissue culture cells (e.g., 3T12 cells)
T2 sequence (P16066 33-1061): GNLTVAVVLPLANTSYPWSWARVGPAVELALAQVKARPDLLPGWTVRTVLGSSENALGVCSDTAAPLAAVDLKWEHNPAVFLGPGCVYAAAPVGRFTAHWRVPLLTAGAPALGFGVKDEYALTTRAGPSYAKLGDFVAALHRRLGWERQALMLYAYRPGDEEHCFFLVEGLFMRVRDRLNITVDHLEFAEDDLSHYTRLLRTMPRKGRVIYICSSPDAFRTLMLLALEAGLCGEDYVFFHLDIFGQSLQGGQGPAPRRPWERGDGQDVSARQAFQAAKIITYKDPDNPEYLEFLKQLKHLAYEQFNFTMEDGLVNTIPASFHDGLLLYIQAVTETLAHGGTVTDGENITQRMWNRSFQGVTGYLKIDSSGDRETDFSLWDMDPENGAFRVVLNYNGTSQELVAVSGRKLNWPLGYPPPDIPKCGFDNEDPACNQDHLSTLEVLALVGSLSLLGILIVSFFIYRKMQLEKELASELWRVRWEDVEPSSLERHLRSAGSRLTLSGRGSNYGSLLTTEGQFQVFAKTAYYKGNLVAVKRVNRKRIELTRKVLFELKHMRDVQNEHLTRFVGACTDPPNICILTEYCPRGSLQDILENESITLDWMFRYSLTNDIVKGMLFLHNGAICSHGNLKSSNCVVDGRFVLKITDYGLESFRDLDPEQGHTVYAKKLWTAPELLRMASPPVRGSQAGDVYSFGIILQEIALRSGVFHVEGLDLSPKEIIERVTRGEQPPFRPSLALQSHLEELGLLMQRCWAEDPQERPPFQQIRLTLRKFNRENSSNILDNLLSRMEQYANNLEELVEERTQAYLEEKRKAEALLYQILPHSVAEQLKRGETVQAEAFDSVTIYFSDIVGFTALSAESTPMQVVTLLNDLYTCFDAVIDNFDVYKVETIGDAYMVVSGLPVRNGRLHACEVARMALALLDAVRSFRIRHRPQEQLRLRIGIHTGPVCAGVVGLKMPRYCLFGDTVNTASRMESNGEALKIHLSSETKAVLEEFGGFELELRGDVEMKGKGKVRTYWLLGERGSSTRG

B1: Fc-Uro(huFcG1(m1)): fusion protein: Fc portion of variant human immunoglobulin heavy constant gamma 1 at amino terminus and human urodilatin at carboxy terminus (protein)
chain: DKTHTCPPCPAPEAEGAPSVFLFPPKPKDTLMISRTPEVTCVVVDVSHEDPEVKFNWYVDGVEVHNAKTKPREEQYNSTYRVVSVLTVLHQDWLNGKEYKCKVSNKALPAPIEKTISKAKGQPREPQVYTLPPSRQELTKNQVSLTCLVKGFYPSDIAVEWESNGQPENNYKTTPPVLDSDGSFFLYSKLTVDKSRWQQGNVFSCSVMHEALHNHYTQKSLSLSPGKTAPRSLRRSSCFGGRMDRIGAQSGLGCNSFRY

Assays:
[1] = target: NPR-A-Fc receptor fusion protein (human); test: SPR (BIAcore), NPR-A-Fc captured by anti-human Fc, analyte injected, 1:1 Langmuir fit
[2] = target: NPR-A receptor expressed on transfected cells; test: cell-based or functional assay
[3] = target: NPR-A-Fc receptor fusion protein (human); test: BIAcore surface plasmon resonance; NPR-A-Fc captured by immobilized goat anti-human Fc gamma antibody, analyte injected; 1:1 Langmuir fit
[4] = target: NPR-A-Fc receptor fusion protein (human); test: SPR (BIAcore), NPR-A-Fc captured by anti-human Fc, analyte injected, 1:1 Langmuir fit; experiment with Fc-Uro
[5] = target: NPR-A-Fc receptor fusion protein (human); test: SPR (BIAcore), NPR-A-Fc captured by anti-human Fc, analyte injected, 1:1 Langmuir fit; experiment with Uro-Fc
[6] = target: T1, purified NPR-A-Fc fusion protein (extracellular domain of the receptor NPR-A); test: BIAcore natriuretic peptide receptor (NPR) binding assay; details: Fc-Uro vs ularitide comparison (FIG. 2B), n=6, read-out: Binding affinities (KD) on the NPR-A receptor
Description: Kinetics measurements for analytes resulting in estimates of binding affinity constants (KD) were performed using BIAcore 2000 & 3000 instruments and methods recommended by the manufacturer (BIAcore, Sweden). […] Purified NPR-A-Fc receptor fusion proteins were captured by goat anti-human Fcγ (GAHFc) antibodies (Jackson ImmunoResearch, Cat 109-005-098) immobilized onto the sensorchip surface. The unoccupied GAHFc after the capture was shielded from analytes by the injection of human Fc (huFc, Jackson ImmunoResearch, Cat 009-000-008). Analytes were injected to obtain an association phase followed by injection of HBS-P running buffer (10 mM HEPES, 150 mM sodium chloride, 0.005% P-20 surfactant, pH 7.4) to monitor dissociation for each binding cycle.
The binding kinetics of each analyte-receptor pair was calculated from a global analysis of sensorgram data collected from different analyte concentrations using the BIAevaluate program (BIAcore, Sweden). The affinity (KD) resulting from association (ka) and dissociation (kd) of each analyte against each receptor was obtained by simultaneously fitting the association and dissociation phases of the sensorgram from the analyte concentration series using the same 1:1 Langmuir model from the BIAevaluate software (BIAcore, Sweden).

[7] = target: T2, NPR-A receptor; test: NPR-A receptor activation, intracellular cGMP in transfected cells; type: cell-based; details: cells expressing NPR-A; Fc-Uro vs ularitide (FIG. 3B); read-out: EC50 of cGMP induction
Description: NPR-A receptor activation by test compounds was determined by incubation with mammalian cells transfected with expression vector DNA encoding for the NPR-A receptor and measuring the amount of cGMP generated in these cells.
Mammalian tissue culture cells (e.g., 3T12 cells) transfected with expression vector DNA encoding for the NPR-A were cultured in 96-well microtiter plates for 18-20 hours (˜50,000 cells/well) using standard tissue culture conditions. The tissue culture medium was then changed to serum-free medium, cells were pre-incubated with 1 mM IBMX for 30 minutes and treated with various concentrations of test compounds for 10 minutes. Cells were then lysed with 0.2 ml/well of 0.1 M HCl for 20 min, and lysates centrifuged at 1000×g for 2 min. The cGMP in the supernatants was determined using a commercial kit (Direct cGMP EIA Kit, Assay Designs, Inc., Cat#901-014) according to the manufacturer's instructions.

| Molecule | Kd [1] [nM] | intracellular cGMP levels, EC50 [2] [nM] | Kd [3] [nM] | Kd [4] [nM] | Kd [5] [nM] | Kd [6] [nM] | EC50 [7] [nM] |
| --- | --- | --- | --- | --- | --- | --- | --- |
| Fc-Uro(huFcG1(m1)) fusion protein (from UniProt P01857 104-330) (Fc fusion) | 0.35 | 86 | – | – | – | – | – |
| Uro-Fc(huFcG1(m1)) fusion protein (Fc fusion) | 7000 | 26.3 | 0.007 | – | – | – | – |
| ularitide (peptide) | – | – | 0.0031 | 0.0042 | 3100 | – | – |
| B1 | – | – | – | – | – | 0.35 ± 0.1 | 86 |
